Literature values, collected in paper PMC6258349.
Like-named read-outs stand apart in the source and are kept apart here.

Columns and labels:
[1] = biological target: chaperone-adhesin FimC-FimH (Escherichia coli) (UniProt P31697)
[2] = biological target: chaperone-adhesin FimC-FimH (Escherichia coli) (UniProt P31697); remark: listed apart in the source

Chain of UniProt P31697 (P31697 37-241, chain 1 of 2): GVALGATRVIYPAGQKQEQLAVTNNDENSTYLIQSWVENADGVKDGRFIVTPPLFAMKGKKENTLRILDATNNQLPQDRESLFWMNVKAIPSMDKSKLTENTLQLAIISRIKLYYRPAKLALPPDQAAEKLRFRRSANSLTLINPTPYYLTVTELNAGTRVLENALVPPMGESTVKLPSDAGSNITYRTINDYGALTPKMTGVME
Chain of UniProt P31697 (P08191 22-300, chain 2 of 2, further chain): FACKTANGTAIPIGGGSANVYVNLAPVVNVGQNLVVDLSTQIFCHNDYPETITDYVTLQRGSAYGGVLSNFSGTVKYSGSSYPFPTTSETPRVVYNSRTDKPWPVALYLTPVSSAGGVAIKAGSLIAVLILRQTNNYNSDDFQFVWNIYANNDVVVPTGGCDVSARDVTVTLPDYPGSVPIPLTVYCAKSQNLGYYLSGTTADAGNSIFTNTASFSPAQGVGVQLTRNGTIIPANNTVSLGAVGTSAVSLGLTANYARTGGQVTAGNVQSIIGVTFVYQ

Row | Kd [1] [nM] | Kd [2] [nM] | Substance
1 | 40 |  | FimD usher CTD (from UniProt P30130)
2 |  | 389 | FimD usher NTD (from UniProt P30130)
